Test results taken from PMC6166240 (Cell reports, 2018).

Target: T1, Extradenticle (Exd), residues 237-310 of isoform A (homeodomain and ten further residues) (Drosophila)
T1 chain: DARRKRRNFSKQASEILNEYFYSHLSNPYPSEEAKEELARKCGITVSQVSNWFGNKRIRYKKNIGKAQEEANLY
Experiment: crystal structure

- binding result: binds
B1: Abdominal-B (AbdB), residues 146-229 of isoform A (W motif, linker and homeodomain) (domain or fragment)
chain: not shown
